Results published in patent US20200291128A1 (ABEXXA BIOLOGICS, published 2020).

Target: T1, HLA-E*0103 (recombinant, refolded with peptide into monomer complexes)
T1 construct: The paragraph names only the allele
Test: peptide binding and peptide/HLA-E refold into monomer complexes

YLLPAIVHI [peptide YLLPAIVHI from the protein RNA Helicase]
binding result: binds
